Test [1] deals with human TrkA on BALB/C 3T3-hTrkA cells (human) (UniProt P04629).
The target of test [2] is p75 neurotrophin receptor (p75NTR), endogenous on rat cells (rat (endogenous in rat oligodendrocyte progenitor cells)) (UniProt P07174).
Sequence of UniProt P07174 (P07174 30-425): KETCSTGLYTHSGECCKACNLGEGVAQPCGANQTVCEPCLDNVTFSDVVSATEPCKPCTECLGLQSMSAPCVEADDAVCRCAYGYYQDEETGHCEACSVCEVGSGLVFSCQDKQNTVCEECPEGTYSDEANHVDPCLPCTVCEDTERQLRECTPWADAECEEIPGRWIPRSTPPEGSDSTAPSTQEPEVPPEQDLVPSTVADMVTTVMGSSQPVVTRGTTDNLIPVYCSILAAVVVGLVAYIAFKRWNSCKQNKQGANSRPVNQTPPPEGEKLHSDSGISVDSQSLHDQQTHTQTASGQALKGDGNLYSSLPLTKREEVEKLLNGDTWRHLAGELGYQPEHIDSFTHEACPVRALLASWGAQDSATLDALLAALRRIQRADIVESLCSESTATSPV

Sequence of UniProt P04629 (P04629 33-796): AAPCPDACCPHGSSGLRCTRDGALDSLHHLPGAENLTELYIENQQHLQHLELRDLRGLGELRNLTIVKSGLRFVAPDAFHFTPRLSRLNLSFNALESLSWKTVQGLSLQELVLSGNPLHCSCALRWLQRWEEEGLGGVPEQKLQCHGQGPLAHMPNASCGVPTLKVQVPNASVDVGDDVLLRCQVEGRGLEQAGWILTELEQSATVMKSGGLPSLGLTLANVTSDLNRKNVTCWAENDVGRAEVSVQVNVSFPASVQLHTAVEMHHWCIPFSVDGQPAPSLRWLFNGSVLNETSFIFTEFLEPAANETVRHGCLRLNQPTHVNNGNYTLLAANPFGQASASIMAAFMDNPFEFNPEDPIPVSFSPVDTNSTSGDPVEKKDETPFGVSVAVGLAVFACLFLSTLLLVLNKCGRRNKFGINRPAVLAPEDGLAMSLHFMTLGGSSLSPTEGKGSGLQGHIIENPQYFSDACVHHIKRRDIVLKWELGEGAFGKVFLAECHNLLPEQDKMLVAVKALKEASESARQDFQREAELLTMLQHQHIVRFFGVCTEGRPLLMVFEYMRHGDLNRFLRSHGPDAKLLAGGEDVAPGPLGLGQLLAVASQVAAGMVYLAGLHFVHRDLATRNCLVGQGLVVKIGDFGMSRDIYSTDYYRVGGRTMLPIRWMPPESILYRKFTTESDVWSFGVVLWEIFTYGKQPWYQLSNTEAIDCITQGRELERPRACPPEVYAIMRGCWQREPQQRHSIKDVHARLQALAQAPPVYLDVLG

Substance “hNGFR100E, mature human NGF with the substitution R100E (from UniProt P01138 122-241) (ligand)” gave a phosphorylation of TrkA residue Tyr490 in BALB/C 3T3-hTrkA cells, 100 ng/ml, Western blot with site-specific anti-phosphoTrkA antibody (% reduction against hNGF) in test [1] of 70. In test [2], this substance gave a phosphorylation of c-jun at Ser63 in hippocampal cells (p75NTR dependent activation of the jnk kinase), 100 ng/ml (% reduction against hNGF) of 30.

Substance “hNGFR100W, mature human NGF with the HSAN V substitution R100W (from UniProt P01138 122-241) (ligand)” gave a phosphorylation of TrkA residue Tyr490 in BALB/C 3T3-hTrkA cells, 100 ng/ml, Western blot with site-specific anti-phosphoTrkA antibody (% reduction against hNGF) in test [1] of 70.

For the origin of these results see PMC3046150.
